Results reported in article PMC10703496.

What follows are substances tested against 6×His-tagged receptor-binding domain (RBD) of SARS-CoV-2 spike, B.1.617.2 (Delta) (SARS-CoV-2) (UniProt P0DTC2) (assay: SPR).
In the case of “ACE2(18–615)-QMP: monomeric ACE2 peptidase domain (residues 18–615) fused to the N-terminal end of QMP human albumin (from UniProt Q9BYF1-1;P02768)”, the Kd is reported as 80.3 nM, the koff is reported as 0.0258 s⁻¹ and the kon is reported as 321000 M⁻¹ s⁻¹.
“ACE2(18–615)-WT: monomeric ACE2 peptidase domain (residues 18–615) fused to the N-terminal end of fu (from UniProt Q9BYF1-1;P02768)” showed a Kd of 175 nM, a koff of 0.0083 s⁻¹ and a kon of 47000 M⁻¹ s⁻¹.
“ACE2-YTY-QMP: dimeric ACE2 with T27Y/L79T/N330Y (YTY) fused to QMP albumin (from UniProt Q9BYF1-1;P02768)” was tested, and the Kd was 0.2 nM, the koff was 4e-05 s⁻¹ and the kon was 201000 M⁻¹ s⁻¹.
Work on “ACE2(18–740)-WT: truncated dimeric human ACE2 (residues 18–740) fused to the N-terminal end of full- (from UniProt Q9BYF1-1;P02768)” yielded a Kd of 1.3 nM, a koff of 0.00021 s⁻¹ and a kon of 159000 M⁻¹ s⁻¹.
“ACE2(18–740)-QMP: truncated dimeric human ACE2 (residues 18–740) fused to the N-terminal end of engi (from UniProt Q9BYF1-1;P02768)” was tested, and the Kd was 2 nM, the koff was 0.00024 s⁻¹ and the kon was 119000 M⁻¹ s⁻¹.
